For 12 sequences, protein production results are on record in a protein production outcome set (Wang et al. 2014).

The data set in a line: label from the status in PepcDB records.

For “MPLKKLIEIGSADFSVSTTACVLQLSHREVPVRGKQSKVISGVLADETARLPFTAWVELPGIDIGSIIRIEGAQIRMFRGMPSINFLEHHHHHH”, the protein production entry was “failed”.
As for “MPLPSLKDQFGALIAASSVSCTQPELDQTNRPVVDLLASWLGDLGFRCEIREVSPGKFNLLASYGSGPGGLVLAGHTDTVPYDEALWSSDPLRLDERDGRWYGLGSCDMKGFFPLAIEALLPLLDQPFRQPLMILATCDEESSMAGARALAESGRPLGRATVIGEPTNLRPIRLHKGVMMERIEILGQSGHSSDPNLGRSALEAMHATIGELMALRGEWQRAWNNPQFSVPQPTLNFGCIHGGDNPNRICGQCSLEFDLRPLPGMQPKQLREAIRQRLRPLAERHQVSIDYQPLFPAVPPFEQAQDSELVRVAERLTGHRAEAVAFGTEAPYFQRLGSETLVLGAGDIACAHQPDEHLELARIEPMVGVLRRLIQHYCLTPAAD”, the entry is “failed”.
The result for “MPLPSSARALKKPRLDDEVRFLRSWIEKPLHMGAVMPSGKLLARTMAHYVDVNSDAPVVELGPGTGAITSALVERGVDQKRLVLVEYNPGFCALLRDRYPQAKVVQGDAYRLRDTLWNVLSAPASAVVSGLPLVTKPMLTRLRLIRDAFTALAPGAPFVQFTYAVVPPIPKSLPGVSTEASERIWMNLPPARVWVYRKD” reads “failed”; that for “MPLRFTTRRAEGGSARRPLSIVSCPLFCPSEPNQFSPMLFRQINDAKLAQYAYLIGCQETGEALLVDPERDIDRYLDLAEREGLEITAVTETHIHADFLSGARELAERFDTTLYLSDEGDENWKYEWAQGPKQGGGDYDVTWLHDGDTFQVGSVEVTALHTPGHTPEHLSFLVTDRGGGADEPMGLLTGDFVFVGDLGRPDLLESAAQVEGAMEPSARTLYTSVQRVLEMPDHLQVWPAHGAGSACGKALGAVPQSTLGYEKQFNPMIDAAREGEDAFVEAILADQPEPQIYFARMKRDNKEGMPVLGSLPAPRELTVRELEDAAADEAPLVIDTRLDRSAYMANHIPGSLYAPMNDTFNTVVGSLVEDETTPIVLIADEGDVEEAVRDLVRIGYDNVTGFAEIDTLQRYFQAGGPSETIDEITFADFDAELQDEATGVLDVRYRSEYEEGHVEGALNASYTRMPEYETELPTDKTLLVHCGSGARAAAASSYLARTGHSVKYVNDHFANYEAASEEAVAA”, “failed”; that for “MPLTDTPPSVPQKPRRGRPRGAPDASLAHQSLIRAGLEHLTEKGYSSVGVDEILKAARVPKGSFYHYFRNKADFGLALIEAYDTYFARLLDQAFLDGSLAPLARLRLFTRMAEEGMARHGFRRGCLVGNLGQEMGALPDDFRAALIGVLETWQRRTAQLFREAQACGELSADHDPDALAEAFWIGWEGAILRAKLELRPDPLHSFTRTFGRHFVTRTQE”, “not failed”.
As to “MPLTNNSTTKPQEIAAIDLGSNSFHMVIARVVNGALQVLGRLKQRVHLADGLDSNNMLSEEAIERGLACLALFAERLQGFSPDNVCIVGTHTLRQAANAETFLKRAAEVIPYPIEIISGQEEARLIFMGVEHTQPEKGRKLVIDIGGGSTEMVIGEDFEPLLVESRRMGCVSFAQQFFPGGEISKNNFRRARLAAAQKLENLAWQYRIQGWQYALGASGTIKATYEVLVEMGEKDGLITPERLEMLVENVLQFKQFSALSLPGLSEDRQSVFVPGLAILCGVFDALAIKTLRLSDGALREGVLYEMEGRFRHQDIRQRTAKSLADHYNIDREQARRVLETTEQLYTQWLAQNTKLVQPQLEALLKWAAMLHEVGLSINHSGMHRHSAYILQNTNLPGFNQEQQTLLATLVRMHRKAIKLDELPRLNLFKKKYYLPLIQLLRLSTLLNNQRQSTTTPESLRLITDDSHWTLRFPHGYLTQNSLVQLDFEREQAYWDDVVGWKLVIEEEEPDEAAKVAPEE”, the protein production entry was “not failed”.
For “MPLVKRNIDPRHLCHTALPRGIKNELECVTNISLANIIRQLSSLSKYAEDIFGELFNEAHSFSFRVNSLQERVDRLSVSVTQLDPKEEELSLQDITMRKAFRSSTIQDQQLFDRKTLPIPLQETYDVCEQPPPLNILTPYRDDGKEGLKFYTNPSYFFDLW”, the protein production result is listed as “failed”.
In the case of “MPLVTRNIEPRHLCRQTLPSVRSELECVTNITLANVIRQLGSLSKYAEDIFGELFTQANTFASRVSSLAERVDRLQVKVTQLDPKEEEVSLQGINTRKAFRSSTIQDQKLFDRNSLPVPVLETYNTCDTPPPLNNLTPYRDDGKEALKFYTDPSYFFDLWKEKMLQDTKDIMKEKRKHRKEKKDNPNRGNVNPRKIKTRKEEWEKMKMGQEFVESKEKLGTSGYPPTLVYQNGSIGCVENVDASSYPPPPQSDSASSPSPSFSEDNLPPPPAEFSYPVDNQRGSGLAGPKRSSVVSPSHPPPAPPLGSPPGPKPGFAPPPAPPPPPPPMIGIPPPPPPVGFGSPGTPPPPSPPSFPPHPDFAAPPPPPPPPAADYPTLPPPPLSQPTGGAPPPPPPPPPPGPPPPPFTGADGQPAIPPPLSDTTKPKSSLPAVSDARSDLLSAIRQGFQLRRVEEQREQEKRDVVGNDVATILSRRIAVEYSDSEDDSSEFDEDDWSD”, the protein production entry is recorded as “not failed”.
Regarding “MPMDFQILDADYEVVNDSGPVIRLFGRGADGKSVCCFVPDFEPYFYLKASGDLHAVARLIKDTFEQVKKVEIVEKFEPVGYQKTKKEMLRVTTRLPKDVPEIRDEILKIRDVLRAEGDWQVYESDILFRNRFLIDRALGGMVWVSAEGKPVDPVRYLGAGSAWRSRCENFACDSAVLASGLKRVENLAIAPLKYLAFDIECLPLDGGMPSPDVSPIIMISFSFEPEYKGHKTLILLAKPAAGMDGDVLSCMDETEMLNKFFEIICEYDPDIVAGYNHQDFDIPYITERVKALVAKGETINSVVGRDGSPIGYRKFGLITRTEMKGRVVVDALPLVRRAFSLKQYTLRAVSKELLSREKLDVPPLEMEEHWNDSGDKFRKFVDYARRDSELALELVLELRLLDKYIALAQVSGSLLQEIVDGGQTSMVETLLLREFGLKDRVILPKPGDELSAERYDMSSDLKGGEVLEPKKGLLENVLILDYKSLYPTIMMAHNLCYTTVVTRDRPDGKTIKPPSGGEFVPPEVFRGIVPSILEDLLNKRGDTKKRMKRTSDENEHRVLDATQLAIKILLNSFYGYSGYARARLYSLTLANAVTSFGRSNILNTRDLINGRIGKIVLRNSAALLLEEAGKLSPQDRIVELSVAYGDTDSVFVHCKAKGDLSLEEVSLVGNRLSEIVSASLPDPMELEFESVAKRALLIAKKRYALWLFEPRNSGWENKIKVKGMETVRRDWCELTSITLNRVLEFVLIEGDVDKAVEHVRKVVSDVRNLDPGKDAGIIEKLVLTRTLTRKADSYKNKQPHLTVAENLKKRTGIMPSIGTRIPFVITAGKGLFVDRAEDPDYVRENNVPIDVDYYVKKQILPPVERILEVFGVKMSSLDFDAKQKGLFDFEVKKPEAKKQEKSSSQKGTNGKILEKAPEEKARYSENGRVEQRSLFDF”, the protein production result is listed as “failed”.
Consider “MPMKSWIKTLLITLLAAALCLLFARVVLPPLLVQLIPPSWEGGPWFWVNLLLAGFLAGLVVAPLLRTRRYYPVPLLLLLSVLVVVGNWAQNRCNDAQLQAIEQLERRSASHSNLGISNEEPAPSAPVDVSATPGVWAHEQGDGYGYSCNRPGETQGFLMPQLMSFGINVLGLLLALLIGPGRRRAR”, for which the protein production entry was “failed”.
The result for “MPNANEDNPSALSQVQRRAVSELLRVSPVADELARRFQEAGFSLALVGGSVRDALLGRLGNDLDFTTDARPEDVLKIVRPWADAMWEVGIAFGTVGAQKEGYQIEVTTYRSEAYDRTSRKPEVSYGDSIEEDLVRRDFTVNAMAVALPEKEFIDPHGGLDDLAARILRTPGTPEESFSDDPLRMMRAARFAAQLDFEVAPDVVTAMTEMAGRIDIVSAERVRDELNKLVLSAHPRKGLTLLVDTGLADHVLPELPALRLERDEHHRHKDVYDHSLIVLEQAIALEENGPDLTLRLAALLHDIGKPRTRRFEKDGRVSFHHHEVVGAKMTKKRMTALKYSNDLVKDVSRLVELHLRFHGYGTGEWTDSAVRRYVRDAGPLLDRLHKLTRSDCTTRNKRRAAALSRAYDGLEERIAQLQEQEELDAIRPDLDGNQIMEVLGVGPGPVIGQAYKFLLELRLENGPMEYDAAVAALKEWWAEQN” reads “failed”; that for “MPNELSRSLSPYLLMHANDPVEWRMWSKETLRIATEENRLIFLSIGYSSCHWCHVMHEESFVDPDVAEILNNNYIPVKVDREERPDLDSYFMKVSQVINGNGGWPLNIILLPDARPVFAMTYVPKEDRNGMTGLKTILIQLSQMYLKDPDQFKDQAKAVSDAMEERESV”, “not failed”.
